What was measured:
[1] = biological target: P75 and trkA receptors on rat PC-12 cell membranes (rat) (UniProt P35739); test: cell-based or functional assay
[2] = biological target: P75 and trkA receptors on rat PC-12 cell membranes (rat) (UniProt P35739); test: radioreceptor assay, competitive binding against NGF standard on rat PC-12 cell membranes

120/120 rhNGF homodimer (NGF-120, full-length 120/120 nerve growth factor), sequence (P01138 122-241 limits assumed): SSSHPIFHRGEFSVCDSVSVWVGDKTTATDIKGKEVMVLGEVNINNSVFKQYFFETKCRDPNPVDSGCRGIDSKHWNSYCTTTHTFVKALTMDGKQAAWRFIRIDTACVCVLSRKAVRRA
P75 and trkA receptors on rat PC-12 cell membranes (rat), sequence (P35739 33-799, chain 1 of 2): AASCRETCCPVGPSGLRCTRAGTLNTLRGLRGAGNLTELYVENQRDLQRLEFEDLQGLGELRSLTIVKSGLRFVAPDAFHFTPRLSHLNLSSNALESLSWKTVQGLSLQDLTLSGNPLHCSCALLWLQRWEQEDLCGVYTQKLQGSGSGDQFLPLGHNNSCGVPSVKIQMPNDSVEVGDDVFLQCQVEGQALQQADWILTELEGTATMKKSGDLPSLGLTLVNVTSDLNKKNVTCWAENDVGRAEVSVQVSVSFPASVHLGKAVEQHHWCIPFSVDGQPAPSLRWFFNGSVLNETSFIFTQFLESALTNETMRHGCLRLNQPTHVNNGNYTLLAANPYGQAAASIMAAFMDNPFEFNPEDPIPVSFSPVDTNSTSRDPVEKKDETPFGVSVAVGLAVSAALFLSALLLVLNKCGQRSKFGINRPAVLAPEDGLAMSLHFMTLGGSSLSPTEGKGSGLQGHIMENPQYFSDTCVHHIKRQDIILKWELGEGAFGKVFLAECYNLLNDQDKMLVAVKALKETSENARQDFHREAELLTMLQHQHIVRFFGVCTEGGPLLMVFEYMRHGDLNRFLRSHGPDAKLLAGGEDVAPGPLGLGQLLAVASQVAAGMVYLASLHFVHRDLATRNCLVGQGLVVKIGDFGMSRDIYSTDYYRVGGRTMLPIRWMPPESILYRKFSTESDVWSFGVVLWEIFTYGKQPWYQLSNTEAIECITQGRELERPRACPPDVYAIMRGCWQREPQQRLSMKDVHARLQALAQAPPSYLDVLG
P75 and trkA receptors on rat PC-12 cell membranes (rat), sequence (P07174 30-425, chain 2 of 2, further chain): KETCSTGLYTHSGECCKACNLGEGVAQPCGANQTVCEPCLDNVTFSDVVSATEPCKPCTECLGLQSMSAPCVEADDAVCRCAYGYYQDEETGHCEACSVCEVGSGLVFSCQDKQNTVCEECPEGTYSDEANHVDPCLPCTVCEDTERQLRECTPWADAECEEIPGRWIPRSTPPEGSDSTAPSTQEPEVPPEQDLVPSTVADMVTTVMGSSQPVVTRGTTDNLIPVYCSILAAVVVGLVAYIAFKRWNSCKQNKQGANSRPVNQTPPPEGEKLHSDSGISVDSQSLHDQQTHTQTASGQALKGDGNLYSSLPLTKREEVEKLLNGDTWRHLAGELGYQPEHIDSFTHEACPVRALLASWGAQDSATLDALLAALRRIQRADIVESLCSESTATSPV

Substance “120/120 rhNGF homodimer (NGF-120, full-length 120/120 nerve growth factor) (from UniProt P01138 122-241) (ligand)” has a PC-12 based assay, activity relative to the 118/118 form [1] of 60% and a percent as active as the 118/118 species [2] of 80 to 90%.
